Source: article PMC8163975 (2021)
Read-outs that look alike come from different tables or passages of the source.

T1: RALA•mGppNHp (human, UniProt P11233 1-206)
T1 chain: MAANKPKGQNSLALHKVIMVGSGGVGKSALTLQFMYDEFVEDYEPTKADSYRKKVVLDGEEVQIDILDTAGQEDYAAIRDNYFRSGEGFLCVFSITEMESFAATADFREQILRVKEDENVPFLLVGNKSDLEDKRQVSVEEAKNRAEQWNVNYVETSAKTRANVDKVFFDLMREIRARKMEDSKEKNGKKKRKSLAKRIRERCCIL

T2: RRAS1•mGppNHp (human, UniProt P10301 1-218)
T2 chain: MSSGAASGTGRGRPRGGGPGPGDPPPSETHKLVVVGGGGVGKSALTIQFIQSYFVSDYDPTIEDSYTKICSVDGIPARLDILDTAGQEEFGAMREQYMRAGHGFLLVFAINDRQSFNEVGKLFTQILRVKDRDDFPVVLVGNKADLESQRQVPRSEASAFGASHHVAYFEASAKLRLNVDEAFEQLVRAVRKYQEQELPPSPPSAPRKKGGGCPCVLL

T3: RAP1B•mGppNHp (human, UniProt P61224 1-184)
T3 chain: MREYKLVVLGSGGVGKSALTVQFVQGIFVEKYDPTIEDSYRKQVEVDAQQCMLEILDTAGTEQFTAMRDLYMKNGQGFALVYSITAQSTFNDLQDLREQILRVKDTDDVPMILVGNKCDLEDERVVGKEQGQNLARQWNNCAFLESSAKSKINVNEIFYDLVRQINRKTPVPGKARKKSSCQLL

T4: RAP2A•mGppNHp (human, UniProt P10114 1-183)
T4 chain: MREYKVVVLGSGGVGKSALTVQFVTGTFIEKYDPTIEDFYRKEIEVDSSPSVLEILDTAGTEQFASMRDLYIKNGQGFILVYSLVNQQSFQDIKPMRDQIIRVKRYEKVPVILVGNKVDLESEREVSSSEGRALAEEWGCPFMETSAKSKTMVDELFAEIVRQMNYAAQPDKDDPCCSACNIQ


Columns and labels:
Experiment in all cases: FP
[1] = molecular target: T1, RALA•mGppNHp
[2] = molecular target: RHEB1•mGppNHp (human, UniProt Q15382 1-184)
[3] = molecular target: T2, RRAS1•mGppNHp
[4] = molecular target: T5, RIT1•mGppNHp (human, UniProt Q92963 1-219)
[5] = molecular target: T3, RAP1B•mGppNHp
[6] = molecular target: T4, RAP2A•mGppNHp
[7] = molecular target: T5, RIT1•mGppNHp; remark: listed apart in the source
[8] = molecular target: HRAS•mGppNHp (human, UniProt P01112 1-189)

T5 sequence (Q92963 whole entry): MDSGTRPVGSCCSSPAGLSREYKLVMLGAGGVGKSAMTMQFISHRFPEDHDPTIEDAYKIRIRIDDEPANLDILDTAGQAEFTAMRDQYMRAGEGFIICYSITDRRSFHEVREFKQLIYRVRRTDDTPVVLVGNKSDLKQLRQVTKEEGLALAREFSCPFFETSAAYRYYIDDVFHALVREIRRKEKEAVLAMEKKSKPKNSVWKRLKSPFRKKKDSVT
Sequence of RHEB1•mGppNHp (Q15382 whole entry): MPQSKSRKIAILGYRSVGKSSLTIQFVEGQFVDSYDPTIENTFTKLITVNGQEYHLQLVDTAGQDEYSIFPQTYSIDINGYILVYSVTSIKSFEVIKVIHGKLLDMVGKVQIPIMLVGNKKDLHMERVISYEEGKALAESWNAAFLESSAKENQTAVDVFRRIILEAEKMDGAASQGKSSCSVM

Row | Kd [1] [µM] | Kd [2] [µM] | Kd [3] [µM] | Kd [4] [µM] | Kd [5] [µM] | Kd [6] [µM] | Kd [7] [µM] | Kd [8] [µM] | Binder
1 | 18 | 37 | 33 | 136 | 26 | 22 |  |  | RASSF1 RA domain, MBP fusion (domain or fragment) RGTSVRRRTSFYLPKDAVKHLHVLSRTRAREVIEALLRKFLVVDDPRKFALFERAERHGQVYLRKLLDDEQPLRLRLLAGPSDKALSFVLKENDS
2 |  |  |  |  |  |  | 170 | 10 | RASSF4-to-5 variant (RASSF4 RA domain with RASSF5 hotspot residues), MBP fusion (domain or fragment) YNHKTSVFTPADGIKTLVRVNSTMTTLQVLTLLLNKFRVEDGPSEFALYIVHESGERTKLKDCEYPLISRILHGPCEKIARIFLMEADL
